Experimental data taken from US20220033501A1 (SHANGHAI PHARMAEXPLORER, published 2022).
Substitutions are numbered along the chain they refer to.

B1: 18D2H2 TIM-3 antibody purified from hybridoma supernatant (chimeric antibody of Example 2) (antibody, V domains shown)
VH: EVQLVESGGDLVQPGGSLRLSCAASGFTFSTYWMTWVRQAPGRGLEWVANIKQDGSAKYYVDSVKGRFTLSRDDAKNSLYLQMNSLRAEDTAVYYCARGSNWFDYWGQGTLVTVSS
VL: ETVMTQSPATLSVSPGERATLSCRANQNVYSNLAWYQQKPGQAPRLLIYDASTRATGFPARFSGSGSGTEFTLTISSLQSEDFAVYYCQQYNNWPLTFGGGTKVEIK
B2: 39E5H1 fully human TIM-3 antibody (human IgG4, kappa) (antibody, V domains shown)
VH: EVQLVESGGGLVQPGGSLRLSCAASGFTFSSYWMSWVRQAPGKGLEWVANIKRGGSERYYVDSVKGRFTISGDNAKNSVYLQMNSLRAEDTAVYYCARGSNWFDPWGQGTLVTVSS
VL: B1 VL with T10I, N26S, N28S, P40L, F58I, L96I, G100Q, K103R, V104L
B3: 57F4E5 TIM-3 antibody purified from hybridoma supernatant (chimeric antibody of Example 2) (antibody, V domains shown)
VH: EVQLVESGGGLVQPGGSLRLSCAASGFTFSSYWMSWVRQAPGKGLEWVANIKQDGSEKYYVDSVKGRFTISRDSAKNSLYLQMNSLRAEDTAMYFCARDSNFFDYWGQGTLVTVSS
VL: B1 VL with N26S, N28S, Y30S, Q38R, D50F, A51S, F58I
B4: 57F4E5 fully human TIM-3 antibody (human IgG4, kappa) (antibody, V domains shown)
VH: B3 VH
VL: B1 VL with N26S, N28S, Y30S, Q38R, D50F, A51S, F58I
B5: 18D2H2 fully human TIM-3 antibody (human IgG4, kappa) (antibody, V domains shown)
VH: B1 VH
VL: B1 VL
B6: 134H3G6 fully human TIM-3 antibody (human IgG4, kappa) (antibody, V domains shown)
VH: EVQLVESGGGLVQPGGSLRLSCAASGFTFSNSWMTWVRQAPGKGLEWVANIKQAGTEKYYVDSVKGRFTISRDNAKNSLYLQMNSLRAEDTAVYYCNSGSNYFDYWGQGTLVTVSS
VL: B1 VL with T2I, N26R, V29F, D50G, F58I
B7: 7A4F10 TIM-3 antibody purified from hybridoma supernatant (chimeric antibody of Example 2) (antibody, V domains shown)
VH: EVQLLESGGGLVQPGGSLRLSCAASGFTFRTHLISWVRQAPGKGLEWVAAITGSGGSTYYADSVKGRFIISRDNSKNTLFLQMNSLRAEDTAVYYCAKDGGSGSYDDFWGQGTLVTVSS
VL: ETVLTQSPVTLSLSPGERATLSCRASQSVGSYLAWYQQKPGQAPRLLIYDASNRATGIPARFSGSGSGTDFTLTISSLEPEDFAVYYCQQRSNWPPTFGQGTKVEIK
B8: 7A4F10 fully human TIM-3 antibody (human IgG4, kappa) (antibody, V domains shown)
VH: B7 VH
VL: B7 VL
B9: 215A8F2 TIM-3 antibody purified from hybridoma supernatant (chimeric antibody of Example 2) (antibody, V domains shown)
VH: QVQLQQWGAGLLKPSETLSLTCTVYGGSFSGYYWNWIRQPPGKGLEWLGEINHSGSTNYNPSLKRRVTISVDTSKNQFSLKLSSVTAADTAVYYCARVYYYGPFDFWGQGTLVTVSS
VL: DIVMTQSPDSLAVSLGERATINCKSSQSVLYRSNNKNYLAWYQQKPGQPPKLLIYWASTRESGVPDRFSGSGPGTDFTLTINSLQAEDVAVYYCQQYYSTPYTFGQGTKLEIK
B10: 215A8F2 fully human TIM-3 antibody (human IgG4, kappa) (antibody, V domains shown)
VH: B9 VH
VL: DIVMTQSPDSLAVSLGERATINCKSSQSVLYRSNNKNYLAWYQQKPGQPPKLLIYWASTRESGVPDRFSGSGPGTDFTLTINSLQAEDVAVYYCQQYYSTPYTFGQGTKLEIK

Experiments:
[1] = target: T1, monkey TIM-3 on CHOK1 stable cell line (CHOK1-cTIM-3) (monkey); assay: FACS, CHOK1-cTIM-3 cells, 0.013 nM antibody
T1 chain: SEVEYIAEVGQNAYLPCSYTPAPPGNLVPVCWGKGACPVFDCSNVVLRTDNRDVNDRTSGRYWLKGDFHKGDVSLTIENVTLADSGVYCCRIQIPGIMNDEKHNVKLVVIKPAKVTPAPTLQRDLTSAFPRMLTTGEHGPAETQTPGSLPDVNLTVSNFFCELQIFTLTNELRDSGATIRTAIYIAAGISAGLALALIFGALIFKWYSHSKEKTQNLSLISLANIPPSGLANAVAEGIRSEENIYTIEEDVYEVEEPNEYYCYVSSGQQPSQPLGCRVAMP
Description: (§1) The pIRES plasmid containing the full-length nucleotide sequence encoding human TIM-3 as described in Example 1 was transfected into CHOK1 cell line to obtain a CHOK1 stable cell line containing human TIM-3 (herein referred to as CHOK1-hTIM-3 stable cell line). The pIRES plasmid containing the full-length gene of monkey TIM-3 was transfected into CHOK1 cell line to construct a CHOK1 stable cell line containing monkey TIM-3 (herein referred to as CHOK1-cTIM-3 stable cell line). The CHOK1-hTIM-3 stable cell line and CHOK1-cTIM-3 stable cell line were expanded to a confluence of 90% in a T-75 cell culture flask. The medium was aspirated, and the cells were washed with HBSS (Hanks' Balanced Salt Solution) 1-2 times, and then treated with an enzyme-free cell dissociation solution (Versene solution: Life technology) and the cells were collected. The cells were washed with HBSS buffer for 1-2 times. After counted, the cells were diluted with HBSS to 1-2×10⁶ cells per ml, added with 1% goat serum blocking solution, incubated on ice for 20-30 minutes, and then washed with HBSS by centrifugation 2 times. The collected cells were suspended in the FACS buffer (HBSS+1% BSA) to 2×10⁶ cells/ml, added as 100 microliters per well to a 96-well FACS reaction plate, added with 100 microliters per well of the antibody sample to be tested, incubated on ice for 1-2 hours. The plate was washed twice with the FACS buffer by centrifugation, added with 100 microliters of fluorescent (Alexa 488)-labeled secondary antibodies per well, and incubated on ice for 0.5-1.0 hours. The plate was washed 2-3 times with FACS buffer by centrifugation, added with 100 μl fixative solution (4% Paraformaldehyde) per well to suspend the cells. 5-10 minutes later, it was washed 1-2 times with FACS buffer by centrifugation. The cells were suspended with 100 microliters of FACS buffer, FACS (FACSCalibur, BD) was used for detection and the results were analyzed. The results are shown in FIGS. 7 and 8, Tables 7 and 8, wherein the IgG control is rat IgG, and the data in the table are the average fluorescence intensity values of the cell populations measured by MFI.

[2] = target: T1, monkey TIM-3 on CHOK1 stable cell line …; assay: FACS, CHOK1-cTIM-3 cells, 0 nM antibody
Description: as §1

[3] = target: T1, monkey TIM-3 on CHOK1 stable cell line …; assay: FACS, CHOK1-cTIM-3 cells, 1.6 nM antibody
Description: as §1

[4] = target: T1, monkey TIM-3 on CHOK1 stable cell line …; assay: FACS, CHOK1-cTIM-3 cells, 40 nM antibody
Description: as §1

[5] = target: T1, monkey TIM-3 on CHOK1 stable cell line …; assay: FACS, CHOK1-cTIM-3 cells, 0.064 nM antibody
Description: as §1

[6] = target: T1, monkey TIM-3 on CHOK1 stable cell line …; assay: FACS, CHOK1-cTIM-3 cells, 200 nM antibody
Description: as §1

[7] = target: T1, monkey TIM-3 on CHOK1 stable cell line …; assay: FACS, CHOK1-cTIM-3 cells, 8 nM antibody
Description: as §1

[8] = target: T1, monkey TIM-3 on CHOK1 stable cell line …; assay: FACS, CHOK1-cTIM-3 cells, 0.32 nM antibody
Description: as §1

[9] = target: T2, murine TIM-3 protein with hFc tag (mTIM-3-hFc protein) (mouse; human, UniProt Q8VIM0 29-191); assay: ELISA, coated mTIM-3-hFc
T2 construct: Made in HEK293 cells; also called mouse TIM-3 extracellular domain protein; not shown: human IgG Fc fragment (hFc) of the pCpC vector
T2 chain: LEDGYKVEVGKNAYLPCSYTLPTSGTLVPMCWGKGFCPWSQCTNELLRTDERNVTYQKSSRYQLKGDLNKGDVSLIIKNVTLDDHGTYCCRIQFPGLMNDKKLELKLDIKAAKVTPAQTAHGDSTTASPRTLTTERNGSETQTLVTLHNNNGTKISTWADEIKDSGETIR

[10] = target: T3, TIM-3 protein on human peripheral blood mononuclear lymphocytes (PBMC) (human, UniProt Q8TDQ0 22-301); assay: cell-based or functional assay
T3 sequence: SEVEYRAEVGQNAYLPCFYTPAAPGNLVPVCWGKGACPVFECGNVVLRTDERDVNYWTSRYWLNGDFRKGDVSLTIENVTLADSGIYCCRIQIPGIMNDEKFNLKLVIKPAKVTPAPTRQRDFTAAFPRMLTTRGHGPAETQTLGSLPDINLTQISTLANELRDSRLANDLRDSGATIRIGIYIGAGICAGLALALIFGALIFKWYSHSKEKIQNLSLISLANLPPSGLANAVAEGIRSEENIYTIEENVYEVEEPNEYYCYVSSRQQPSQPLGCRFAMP

Binder | Mean fluorescence intensity [1] | Mean fluorescence intensity [2] | Mean fluorescence intensity [3] | Mean fluorescence intensity [4] | Mean fluorescence intensity [5] | Mean fluorescence intensity [6] | Mean fluorescence intensity [7] | Mean fluorescence intensity [8] | binding result [9] | other results
B1 | 4.3 | 3.2 | 35.8 | 186 | 6.9 | 203 | 92.2 | 14.4 |  | 
B2 |  |  |  |  |  |  |  |  | no binding (tested: 66.667 nM) | 
B3 | 22.2 | 3.2 | 460 | 699 | 59.6 | 675 | 704 | 185 |  | 
B4 |  |  |  |  |  |  |  |  | no binding (tested: 66.667 nM) | 
B5 |  |  |  |  |  |  |  |  | no binding (tested: 66.667 nM) | 
B6 |  |  |  |  |  |  |  |  | no binding (tested: 66.667 nM) | 
B7 | 4.1 | 3.2 | 29.1 | 163 | 5.9 | 147 | 90 | 11.3 |  | IFN production; antibody 0.001 µg/ml (4th head as printed), N = 1 [10]: 672 pg/mL; IFN production; antibody 0.001 µg/ml (4th head as printed), N = 2 [10]: 719 pg/mL; IFN production; antibody 0.001 µg/ml (5th head as printed), N = 1 [10]: 666 pg/mL; IFN production; antibody 0.001 µg/ml (5th head as printed), N = 2 [10]: 756 pg/mL; IFN production; antibody 0.1 µg/ml, N = 1 [10]: 758 pg/mL; IFN production; antibody 0.1 µg/ml, N = 2 [10]: 873 pg/mL; IFN production; antibody 1 µg/ml, N = 1 [10]: 1010 pg/mL; IFN production; antibody 1 µg/ml, N = 2 [10]: 1160 pg/mL; IFN production; antibody 10 µg/ml, N = 1 [10]: 848 pg/mL; IFN production; antibody 10 µg/ml, N = 2 [10]: 1010 pg/mL
B8 |  |  |  |  |  |  |  |  | no binding (tested: 66.667 nM) | 
B9 | 13.6 | 3.2 | 330 | 976 | 34.7 | 961 | 733 | 108 |  | IFN production; antibody 0.001 µg/ml (4th head as printed), N = 1 [10]: 782 pg/mL; IFN production; antibody 0.001 µg/ml (4th head as printed), N = 2 [10]: 753 pg/mL; IFN production; antibody 0.001 µg/ml (5th head as printed), N = 1 [10]: 791 pg/mL; IFN production; antibody 0.001 µg/ml (5th head as printed), N = 2 [10]: 741 pg/mL; IFN production; antibody 0.1 µg/ml, N = 1 [10]: 840 pg/mL; IFN production; antibody 0.1 µg/ml, N = 2 [10]: 901 pg/mL; IFN production; antibody 1 µg/ml, N = 1 [10]: 1020 pg/mL; IFN production; antibody 1 µg/ml, N = 2 [10]: 1070 pg/mL; IFN production; antibody 10 µg/ml, N = 1 [10]: 943 pg/mL; IFN production; antibody 10 µg/ml, N = 2 [10]: 1070 pg/mL
B10 |  |  |  |  |  |  |  |  | no binding (tested: 66.667 nM) | 
